Consider two molecules from publication PMC8480667 (The Journal of Experimental Medicine, 2021).

The target in experiment [1] is human α1β3γ2 GABAA receptor on HEK293T cells (Homo sapiens, UniProt P14867;P28472;P18507). The experiment can be described thus: flow cytometry on cells. Background: Flow cytometry measures light scatter and fluorescence of single cells or particles in a stream.
The target of experiment [2] is rat α1β3γ2 GABAA receptor on HEK293T cells (Rattus norvegicus, UniProt P62813;P63079;P18508). Nature of the experiment: flow cytometry on cells.
In experiment [3] the target is rat α1β3 GABAA receptor on HEK293T cells (Rattus norvegicus, UniProt P62813;P63079). The experiment can be described thus: immunostaining of cells or tissue.
Experiment [4] has as its target rodent GABAA receptor γ2 subunit alone on COS7 cells (Rattus norvegicus (paper: rodent), UniProt P18508). The experiment can be described thus: immunostaining of cells or tissue.
Experiment [5] concerns the target rodent α3β3γ2 GABAA receptor on COS7 cells (Rattus norvegicus (α3 rat; β3, γ2 …, UniProt P20236;P63079;P18508). The experiment can be described thus: immunostaining of cells or tissue.
The target of experiment [6] is rodent α4β3γ2 GABAA receptor on COS7 cells (Rattus norvegicus (α4 rat; β3, γ2 …, UniProt P28471;P63079;P18508). Nature of the experiment: immunostaining of cells or tissue.
In experiment [7] the target is rodent α2β3γ2 GABAA receptor on COS7 cells (Rattus norvegicus (paper: rodent), UniProt P23576;P63079;P18508). The experiment can be described thus: immunostaining of cells or tissue.
Experiment [8] has as its target rodent GABAA receptor β3 subunit alone on COS7 cells (Rattus norvegicus, UniProt P63079). Nature of the experiment: immunostaining of cells or tissue.
Experiment [9] deals with rodent α1β3γ2 GABAA receptor on COS7 cells (Rattus norvegicus (alpha1, beta3); …, UniProt P62813;P63079;P18508). Nature of the experiment: immunostaining of cells or tissue.
Experiment [10] concerns the target rodent α5β3γ2 GABAA receptor on COS7 cells (Rattus norvegicus (paper: rodent), UniProt P19969;P63079;P18508). The experiment can be described thus: immunostaining of cells or tissue.
Experiment [11] concerns the target rodent α1β3 GABAA receptor on COS7 cells (Rattus norvegicus, UniProt P62813;P63079). Nature of the experiment: immunostaining of cells or tissue.

Sequence of rodent α4β3γ2 GABAA receptor on COS7 cells (Rattus norvegicus (P28471 36-552, chain 1 of 3): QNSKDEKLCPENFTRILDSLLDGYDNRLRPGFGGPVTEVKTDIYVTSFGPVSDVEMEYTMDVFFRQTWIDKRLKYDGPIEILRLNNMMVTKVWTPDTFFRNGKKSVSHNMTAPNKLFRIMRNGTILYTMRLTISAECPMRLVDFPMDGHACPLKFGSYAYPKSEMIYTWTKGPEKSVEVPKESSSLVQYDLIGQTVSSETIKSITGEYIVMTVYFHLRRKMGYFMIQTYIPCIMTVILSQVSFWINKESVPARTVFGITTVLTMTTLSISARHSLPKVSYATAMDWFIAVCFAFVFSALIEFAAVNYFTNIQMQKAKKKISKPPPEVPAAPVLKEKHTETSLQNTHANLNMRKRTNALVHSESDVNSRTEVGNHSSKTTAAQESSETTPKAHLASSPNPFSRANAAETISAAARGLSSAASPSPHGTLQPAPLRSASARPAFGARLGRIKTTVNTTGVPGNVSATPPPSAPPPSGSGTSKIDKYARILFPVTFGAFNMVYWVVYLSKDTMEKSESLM
Sequence of rodent α4β3γ2 GABAA receptor on COS7 cells (Rattus norvegicus (P63079 26-473, chain 2 of 3): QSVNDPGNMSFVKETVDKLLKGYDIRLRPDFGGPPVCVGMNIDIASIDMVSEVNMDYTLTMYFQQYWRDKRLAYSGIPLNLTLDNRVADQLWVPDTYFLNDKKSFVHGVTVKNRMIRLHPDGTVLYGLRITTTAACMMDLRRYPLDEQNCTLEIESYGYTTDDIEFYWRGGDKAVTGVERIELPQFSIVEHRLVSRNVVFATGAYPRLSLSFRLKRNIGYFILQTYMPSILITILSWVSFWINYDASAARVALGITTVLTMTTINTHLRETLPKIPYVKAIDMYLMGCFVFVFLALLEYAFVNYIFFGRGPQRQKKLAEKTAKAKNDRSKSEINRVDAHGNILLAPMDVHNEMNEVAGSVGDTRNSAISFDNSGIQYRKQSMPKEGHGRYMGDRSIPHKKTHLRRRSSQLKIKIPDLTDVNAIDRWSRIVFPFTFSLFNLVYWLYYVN
Sequence of rodent α4β3γ2 GABAA receptor on COS7 cells (Rattus norvegicus (P18508 39-466, chain 3 of 3): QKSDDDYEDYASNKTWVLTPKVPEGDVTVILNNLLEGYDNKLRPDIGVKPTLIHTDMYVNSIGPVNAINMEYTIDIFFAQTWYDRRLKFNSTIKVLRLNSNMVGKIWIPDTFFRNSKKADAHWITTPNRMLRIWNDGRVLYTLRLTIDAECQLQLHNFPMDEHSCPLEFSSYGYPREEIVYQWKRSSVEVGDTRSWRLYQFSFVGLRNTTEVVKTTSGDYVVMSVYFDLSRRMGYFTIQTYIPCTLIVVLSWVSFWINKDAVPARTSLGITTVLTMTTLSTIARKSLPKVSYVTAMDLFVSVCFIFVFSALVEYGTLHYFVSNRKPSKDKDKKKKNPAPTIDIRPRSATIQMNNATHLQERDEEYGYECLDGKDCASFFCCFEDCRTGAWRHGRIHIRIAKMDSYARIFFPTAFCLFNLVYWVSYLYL
Sequence of rodent α5β3γ2 GABAA receptor on COS7 cells (P19969 26-464, chain 1 of 3): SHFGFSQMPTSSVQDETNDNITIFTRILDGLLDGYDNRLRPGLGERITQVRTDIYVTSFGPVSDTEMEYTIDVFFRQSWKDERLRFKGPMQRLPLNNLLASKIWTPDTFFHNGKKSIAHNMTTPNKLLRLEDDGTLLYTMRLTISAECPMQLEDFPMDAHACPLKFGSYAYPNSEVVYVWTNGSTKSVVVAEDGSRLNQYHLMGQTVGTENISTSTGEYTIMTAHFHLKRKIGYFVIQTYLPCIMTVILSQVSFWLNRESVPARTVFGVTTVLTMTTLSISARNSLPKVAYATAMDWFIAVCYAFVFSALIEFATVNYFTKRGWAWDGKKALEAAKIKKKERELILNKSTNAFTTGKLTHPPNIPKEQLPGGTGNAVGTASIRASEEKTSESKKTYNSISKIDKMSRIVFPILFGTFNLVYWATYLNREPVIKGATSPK
Sequence of rodent α5β3γ2 GABAA receptor on COS7 cells (P63079 26-473, chain 2 of 3): as the sequence (P63079 26-473, chain 2 of 3) above
Sequence of rodent α5β3γ2 GABAA receptor on COS7 cells (P18508 39-466, chain 3 of 3): as the sequence (P18508 39-466, chain 3 of 3) above
Sequence of rodent α3β3γ2 GABAA receptor on COS7 cells (Rattus norvegicus (P20236 29-493, chain 1 of 3): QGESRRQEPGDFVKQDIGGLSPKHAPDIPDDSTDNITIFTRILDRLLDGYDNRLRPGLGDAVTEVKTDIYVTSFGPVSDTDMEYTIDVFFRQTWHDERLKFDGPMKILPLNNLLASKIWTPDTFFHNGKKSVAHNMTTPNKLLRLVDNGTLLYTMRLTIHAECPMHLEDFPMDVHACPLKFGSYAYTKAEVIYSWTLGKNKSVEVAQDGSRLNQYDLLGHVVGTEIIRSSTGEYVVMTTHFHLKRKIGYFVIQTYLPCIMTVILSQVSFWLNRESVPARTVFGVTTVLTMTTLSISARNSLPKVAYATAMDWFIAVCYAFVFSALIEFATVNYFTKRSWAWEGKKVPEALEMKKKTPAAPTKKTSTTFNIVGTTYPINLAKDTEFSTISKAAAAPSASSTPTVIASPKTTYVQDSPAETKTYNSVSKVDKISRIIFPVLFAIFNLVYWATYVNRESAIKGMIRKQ
Sequence of rodent α3β3γ2 GABAA receptor on COS7 cells (Rattus norvegicus (P63079 26-473, chain 2 of 3): as the sequence (P63079 26-473, chain 2 of 3) above
Sequence of rodent α3β3γ2 GABAA receptor on COS7 cells (Rattus norvegicus (P18508 39-466, chain 3 of 3): as the sequence (P18508 39-466, chain 3 of 3) above
Sequence of rodent GABAA receptor γ2 subunit alone on COS7 cells (P18508 39-466): as the sequence (P18508 39-466, chain 3 of 3) above
Sequence of rodent GABAA receptor β3 subunit alone on COS7 cells (P63079 26-473): as the sequence (P63079 26-473, chain 2 of 3) above

B1: human monoclonal GABAAR antibody #113-175 (antibody, V domains shown)
VH: EVQLLESGEGLVQPGGSLRLSCAASGFTFKTYAMSWVRQAPGKGLEWVSAISGSGASTYYADFVEGRFTISRDNSKNTLYLQMNSLRAEDTAVYYCAKEPPAMVWFGGGYFDYWGQGTLVTVSS
VL: EIVLTQSPATLSLSPGERATLSCRASQSVSSYLAWYQQKPGQAPRLLIYDASNRATGIPARFSGSGSGTDFTLTISSLEPEDFAVYYCQQRSNWPPYSFGQGTKLEIK
Take B1: the binding result in experiment [1] was “binds”; in [2], “binds”; in experiment [3], “no binding”; in experiment [4], “no binding (tested: 5 µg/ml)”; in [5] it was “no binding (tested: 5 µg/ml)”; in experiment [6] it was “no binding (tested: 5 µg/ml)”. The binding result in experiment [7] was “no binding (tested: 5 µg/ml)”; in experiment [8], “no binding (tested: 5 µg/ml)”; in experiment [9], “binds”; in experiment [10], “no binding (tested: 5 µg/ml)”; in experiment [11], “no binding (tested: 5 µg/ml)”.

B2: human monoclonal GABAAR antibody #113-115 (antibody, V domains shown)
VH: QVQLVQSGAEVKKPGASVKVSCKASGYTFISYDINWVRQATGQGLEWMGGMDPKSGNTGYAQKFQGRVTMTTNTAISTAYMELSSLRSEDTAVYYCVRGEQSYDRTGYSDWFDPWGQGTLVTVSS
VL: not shown
B2: the binding result is on record as “binds” in experiment [1]; “binds” in [2]; “binds” in [3]; “no binding (tested: 5 µg/ml)” in experiment [4]; “no binding (tested: 5 µg/ml)” in experiment [5]; “no binding (tested: 5 µg/ml)” in experiment [6]. Moreover, the binding result was “no binding (tested: 5 µg/ml)” in experiment [7]; “no binding (tested: 5 µg/ml)” in experiment [8]; “binds” in experiment [9]; “no binding (tested: 5 µg/ml)” in experiment [10]; “binds” in experiment [11].
